What was measured:
TYK2 JH1 domain = biological target: T1, TYK2 JH1 domain (UniProt P29597 897-1176); assay: SPR
T1 chain: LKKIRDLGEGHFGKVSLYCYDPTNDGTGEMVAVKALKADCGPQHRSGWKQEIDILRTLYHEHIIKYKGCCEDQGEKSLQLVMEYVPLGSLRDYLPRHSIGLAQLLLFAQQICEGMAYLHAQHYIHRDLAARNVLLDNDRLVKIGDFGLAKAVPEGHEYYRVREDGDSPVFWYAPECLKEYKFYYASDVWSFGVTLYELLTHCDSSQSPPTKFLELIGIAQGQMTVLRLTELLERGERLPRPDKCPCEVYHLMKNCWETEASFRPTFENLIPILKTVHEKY

JAK3 JH1 domain = JAK3 JH1 domain (UniProt P52333 822-1111); assay: SPR
JAK3 JH1 domain, sequence (P52333 822-1111): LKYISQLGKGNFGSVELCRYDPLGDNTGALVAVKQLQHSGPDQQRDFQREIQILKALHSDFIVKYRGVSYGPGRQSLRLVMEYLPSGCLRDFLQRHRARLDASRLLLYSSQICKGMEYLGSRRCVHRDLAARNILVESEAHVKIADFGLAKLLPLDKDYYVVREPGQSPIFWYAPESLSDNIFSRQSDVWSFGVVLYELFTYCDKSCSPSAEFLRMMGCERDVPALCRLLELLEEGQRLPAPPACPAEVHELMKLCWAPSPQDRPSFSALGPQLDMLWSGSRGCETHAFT

Kd (TYK2 JH1 domain): 1.2 µM | Kd (JAK3 JH1 domain): 2.1 µM
B1: SOCS5 175–244 fragment (domain or fragment)
chain: RSLRQRLQDTVGLCFPMRTYSKQSKPLFSNKRKIHLSELMLEKCPFPAGSDLAQKWHLIKQHTAPVSPHS

Source: PMC3749136 (2013)
